Legend:
[1] = molecular target: T1, Human CB1 receptor (cannabinoid receptor-1), wild type (human, UniProt P21554 1-472); experiment: method not given
T1 construct: as PerkinElmer hCB1 membranes in the GTP-Eu assay; also called hCB1; huCB1

[2] = molecular target: T2, Mouse CB1 receptor, wild type (mouse, UniProt P47746 1-473); experiment: FACS on transfected cells
T2 construct: also called mCB1; V5-mCB1

[3] = molecular target: T1, Human CB1 receptor (cannabinoid …); experiment: cell-based or functional assay

T1 sequence (P21554 whole entry): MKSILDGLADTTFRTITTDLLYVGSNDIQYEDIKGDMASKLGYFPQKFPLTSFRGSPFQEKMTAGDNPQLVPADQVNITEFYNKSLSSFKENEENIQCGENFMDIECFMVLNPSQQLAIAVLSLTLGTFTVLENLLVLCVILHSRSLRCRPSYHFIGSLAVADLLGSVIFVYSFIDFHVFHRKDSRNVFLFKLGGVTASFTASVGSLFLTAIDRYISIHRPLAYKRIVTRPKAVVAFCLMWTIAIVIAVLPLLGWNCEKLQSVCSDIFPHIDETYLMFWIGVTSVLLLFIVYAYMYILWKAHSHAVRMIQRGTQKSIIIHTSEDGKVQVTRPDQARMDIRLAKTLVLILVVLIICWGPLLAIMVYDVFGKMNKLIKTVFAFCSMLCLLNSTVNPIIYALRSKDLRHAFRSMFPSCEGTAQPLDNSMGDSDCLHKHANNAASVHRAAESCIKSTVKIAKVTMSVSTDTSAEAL
T2 sequence (P47746 whole entry): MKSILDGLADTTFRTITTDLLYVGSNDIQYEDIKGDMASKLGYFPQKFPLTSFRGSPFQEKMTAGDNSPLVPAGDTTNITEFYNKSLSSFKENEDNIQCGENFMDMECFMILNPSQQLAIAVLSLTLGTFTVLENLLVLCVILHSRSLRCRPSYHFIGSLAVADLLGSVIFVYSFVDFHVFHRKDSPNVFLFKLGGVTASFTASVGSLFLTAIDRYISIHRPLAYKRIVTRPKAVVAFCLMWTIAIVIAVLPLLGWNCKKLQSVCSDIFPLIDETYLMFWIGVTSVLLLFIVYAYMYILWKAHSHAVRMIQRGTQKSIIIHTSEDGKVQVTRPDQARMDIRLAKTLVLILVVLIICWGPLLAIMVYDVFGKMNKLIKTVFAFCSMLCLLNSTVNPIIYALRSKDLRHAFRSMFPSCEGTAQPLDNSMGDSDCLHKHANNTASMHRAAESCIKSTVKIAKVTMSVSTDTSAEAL

B1: CB1 antibody 10D10 (antibody, human IgG2, kappa, V domains shown)
VH: QVQLQESGPGLVKPSQTLSLTCTVSGGSIRRGGDYWSWIRQHPGKGLEWIGYIYYSGSTNYNPSLKSRATISVDTSKNQFSLKLSSVTAADTAVYYCARDYDILTGYSYYYYGMDVWGQGTTVTVSS
VL: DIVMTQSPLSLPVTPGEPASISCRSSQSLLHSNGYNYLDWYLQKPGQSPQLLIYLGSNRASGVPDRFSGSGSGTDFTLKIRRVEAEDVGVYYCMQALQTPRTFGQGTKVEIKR
notes: Xenomouse (human) antibody; also called wild-type 10D10; WT HC / WT LC
- Kd [1]: < 0.2 µM
- binding result [2]: no binding
- IC50, GTP-Eu assay against anandamide [3]: 0.0101 µM

Source: patent US20160145333A1 (Amgen, published 2016)
